Reference: patent US20060034835A1 (Genentech, published 2006)

T1: human CD20 (human, UniProt P11836 1-297)
T1 construct: whole, on cells; also called CD20 antigen; Bp35
T1 sequence (looked up): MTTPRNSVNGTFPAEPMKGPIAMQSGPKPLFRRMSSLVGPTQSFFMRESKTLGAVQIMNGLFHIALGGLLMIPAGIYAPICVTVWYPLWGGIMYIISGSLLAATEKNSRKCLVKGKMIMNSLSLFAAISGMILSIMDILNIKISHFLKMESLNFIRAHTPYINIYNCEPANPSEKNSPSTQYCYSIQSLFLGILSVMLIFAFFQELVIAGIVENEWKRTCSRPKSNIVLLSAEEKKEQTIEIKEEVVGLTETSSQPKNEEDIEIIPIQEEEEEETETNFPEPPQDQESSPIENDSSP


What was measured:
[1] = target: human CD20 (human) (UniProt P11836); test: cell-based or functional assay
[2] = target: T1, human CD20; test: cell-based ELISA on WIL2-S cells
Procedure: To measure relative binding affinities to the CD20 antigen, a cell-based ELISA assay was developed. […] The cells were washed with PBS containing 1% FBS (assay buffer) and seeded at 250-300,000 cell/well in 96-well round bottom plates (Nunc, Roskilde, Denmark). […] The plates were buried in ice and incubated for 45 min. To remove the unbound antibody, 0.1 mL assay buffer were added to the wells. Plates were centrifuged and supernatants were removed. Cells were washed two more times with 0.2 mL assay buffer. Antibody bound to the plates was detected by adding peroxidase conjugated goat anti-human Fc antibody (Jackson ImmunoResearch, West Grove, Pa.) to the plates. After a 45 min incubation, cells were washed as described before. TMB substrate (3,3′,5,5′-tetramethyl benzidine; Kirkegaard & Perry Laboratories, Gaithersburg, Md.) was added to the plates. The reaction was stopped by adding 1 M phosphoric acid. Titration curves were fit with a four-parameter nonlinear regression curve-fitting program (KaleidaGraph, Synergy software, Reading, Pa.). The absorbance at the midpoint of the titration curve (mid-OD) and its corresponding concentration of the standard were determined. Then the concentration of each variant at this mid-OD was determined, and the concentration of the standard was divided by that of each variant.

ADCC: EC50(variant)/EC50(2H7.v16) [1]	ADCC: EC50(variant)/EC50(Rituxan) [1]	CDC: EC50(variant)/EC50(Rituxan) [1]	apoptosis of Ramos cells: fraction of Annexin V stained cells at 10 nM crosslinked antibody [1]	apoptosis of Ramos cells: fraction of doubly labeled cells at 10 nM crosslinked antibody [1]	apoptosis of Ramos cells: live cells counted per 10 s at 10 nM crosslinked antibody (cells per 10 s) [1]	Relative binding [2]	Molecule
5.3	1	1	16.5%	38%	3100	–	Rituxan (rituximab) (antibody)
–	–	–	–	–	–	0.99 ratio to 2H7.v16	2H7 version 166 (antibody, human IgG1, kappa, V domains shown, IgG1; Y100b is deleted (written as a substitution with an empty new residue)) VH: EVQLVESGGGLVQPGGSLRLSCAASGYTFTSYNMHWVRQAPGKGLEWVGAIYPGNGDTSYNQKFKGRFTISVDKSKNTLYLQMNSLRAEDTAVYYCARVVYYGGDWYFDVWGQGTLVTVSS VL: DIQMTQSPSSLSASVGDRVTITCRASSSVSYMHWYQQKPGKAPKPLIYAPSNLASGVPSRFSGSGSGTDFTLTISSLQPEDFATYYCQQWSFNPPTFGQGTKVEIKR
